{
  "source": "patent US20200071775A1",
  "target": "potato virus Y (PVY)",
  "test": "sandwich ELISA, PVY captured by PVY capture antibody (Agdia), phage at 3 µg/ml, anti-M13 HRP detection",
  "data": [
    {"substance": "M13KO7 bacteriophage (from UniProt P69168 19-424; P69530 1-112; P69541 24-73)", "values": [
      {"measurement": "improved sensitivity compared to the existing antibody (PVY detection antibody, Agdia)", "result": 25, "unit": "%"}
    ]}
  ]
}
